In series [1] the target is T1, hClp1 (CF II subunit or alone) (human) (UniProt Q92989).
T1 sequence: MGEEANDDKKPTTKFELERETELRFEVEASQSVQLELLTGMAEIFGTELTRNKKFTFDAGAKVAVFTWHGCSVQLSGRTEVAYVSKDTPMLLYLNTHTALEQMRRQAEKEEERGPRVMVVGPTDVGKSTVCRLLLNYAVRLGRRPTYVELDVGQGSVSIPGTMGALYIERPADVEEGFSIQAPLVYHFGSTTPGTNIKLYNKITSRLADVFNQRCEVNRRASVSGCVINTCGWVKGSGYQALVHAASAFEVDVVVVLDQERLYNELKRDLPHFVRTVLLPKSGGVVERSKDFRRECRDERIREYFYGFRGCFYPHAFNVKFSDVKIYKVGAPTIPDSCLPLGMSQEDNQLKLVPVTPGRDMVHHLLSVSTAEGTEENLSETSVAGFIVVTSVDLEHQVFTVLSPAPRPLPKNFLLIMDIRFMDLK
Kind of series: filter binding.

For series [2], the target named is hPcf11 (CF II subunit);hClp1 (CF II subunit or alone) (human;human) (UniProt O94913+Q92989). Kind of series: filter binding.
Chain of hPcf11 (CF II subunit);hClp1 (CF II subunit or alone) (human;human) (O94913 whole entry, one chain of several): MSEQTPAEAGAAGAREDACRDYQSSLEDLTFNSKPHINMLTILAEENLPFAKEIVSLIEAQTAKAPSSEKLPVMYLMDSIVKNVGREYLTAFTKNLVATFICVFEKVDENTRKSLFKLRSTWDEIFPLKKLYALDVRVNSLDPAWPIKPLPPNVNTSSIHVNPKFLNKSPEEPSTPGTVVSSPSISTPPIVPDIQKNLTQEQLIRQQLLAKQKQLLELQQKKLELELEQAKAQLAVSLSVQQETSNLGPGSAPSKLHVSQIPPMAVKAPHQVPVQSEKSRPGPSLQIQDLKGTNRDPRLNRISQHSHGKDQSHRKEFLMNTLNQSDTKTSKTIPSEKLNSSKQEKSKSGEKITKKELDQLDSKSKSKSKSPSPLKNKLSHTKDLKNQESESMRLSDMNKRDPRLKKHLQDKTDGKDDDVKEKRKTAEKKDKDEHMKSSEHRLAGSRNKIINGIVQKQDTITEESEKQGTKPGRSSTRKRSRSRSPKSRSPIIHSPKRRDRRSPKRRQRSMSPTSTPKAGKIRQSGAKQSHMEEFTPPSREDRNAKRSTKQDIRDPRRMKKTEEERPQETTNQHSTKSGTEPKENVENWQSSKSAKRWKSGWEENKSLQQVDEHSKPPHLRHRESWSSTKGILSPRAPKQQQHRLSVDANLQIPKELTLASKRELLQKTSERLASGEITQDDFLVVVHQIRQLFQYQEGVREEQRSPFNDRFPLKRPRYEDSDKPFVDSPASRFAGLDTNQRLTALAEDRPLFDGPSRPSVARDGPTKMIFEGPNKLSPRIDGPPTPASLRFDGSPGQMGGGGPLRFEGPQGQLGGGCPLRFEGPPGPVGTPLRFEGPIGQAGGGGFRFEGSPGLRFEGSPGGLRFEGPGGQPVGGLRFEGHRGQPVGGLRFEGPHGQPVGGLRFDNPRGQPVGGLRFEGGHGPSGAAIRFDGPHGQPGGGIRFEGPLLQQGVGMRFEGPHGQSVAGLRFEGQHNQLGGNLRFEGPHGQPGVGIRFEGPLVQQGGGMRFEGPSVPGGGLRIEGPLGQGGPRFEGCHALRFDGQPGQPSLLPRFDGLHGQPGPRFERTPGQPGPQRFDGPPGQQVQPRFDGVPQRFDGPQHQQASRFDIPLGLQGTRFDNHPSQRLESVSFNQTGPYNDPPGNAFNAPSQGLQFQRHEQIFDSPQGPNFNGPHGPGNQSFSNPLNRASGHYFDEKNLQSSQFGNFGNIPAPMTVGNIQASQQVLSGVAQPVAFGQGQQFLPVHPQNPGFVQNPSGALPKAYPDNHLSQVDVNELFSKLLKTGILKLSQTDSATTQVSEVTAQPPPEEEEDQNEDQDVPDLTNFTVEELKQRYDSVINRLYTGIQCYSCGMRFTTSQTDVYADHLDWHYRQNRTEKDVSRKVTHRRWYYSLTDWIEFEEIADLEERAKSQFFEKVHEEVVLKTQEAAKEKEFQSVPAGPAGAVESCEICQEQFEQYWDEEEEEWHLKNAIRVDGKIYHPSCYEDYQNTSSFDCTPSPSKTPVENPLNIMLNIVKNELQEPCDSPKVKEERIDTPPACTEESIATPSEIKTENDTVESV

Results on two substances are retold here after publication PMC6239180.

Consider SV40 late RNA, for which the figures for the K half in series [1] and in series [2] were 140 nM and 0.4 nM, respectively.
L3 RNA registered a K half in series [2] of 0.9 nM.
